We go through 5 molecules from publication PMC4417169, “Significance of ligand interactions involving Hop2-Mnd1 and the RAD51 and DMC1 recombinases in homologous DNA repair and XX ovarian dysgenesis” (Nucleic Acids Research, 2015).

Positions count from the first letter of the chain named.

To fix the notation:
T1: Hop2 (G203N)-Mnd1, MBP-tagged (mouse, UniProt O35047 1-217; Q8K396 1-205, G203N)
T1 construct: Hop2, mouse; Mnd1, mouse; also called the G203N mutant; source: E. coli, purified; not shown: MBP, N-terminal, kept
T1 sequence (looked up) 1: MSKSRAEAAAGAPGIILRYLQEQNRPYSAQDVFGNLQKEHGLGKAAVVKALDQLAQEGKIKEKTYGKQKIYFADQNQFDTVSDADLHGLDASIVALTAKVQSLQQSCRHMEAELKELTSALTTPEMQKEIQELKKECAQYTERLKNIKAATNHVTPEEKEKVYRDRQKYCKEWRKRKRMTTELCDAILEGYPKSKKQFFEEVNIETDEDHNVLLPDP
T1 sequence (looked up) 2: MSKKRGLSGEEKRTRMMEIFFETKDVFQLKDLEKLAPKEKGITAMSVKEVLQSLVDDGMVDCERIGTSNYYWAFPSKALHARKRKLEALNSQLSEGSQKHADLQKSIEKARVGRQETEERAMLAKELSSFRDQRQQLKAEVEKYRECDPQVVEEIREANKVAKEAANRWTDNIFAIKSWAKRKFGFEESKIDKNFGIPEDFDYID

T2: Hop2 (R176A)-Mnd1 (mouse, UniProt O35047 1-217; Q8K396 1-205, R176A)
T2 construct: Hop2, mouse; Mnd1, mouse; source: E. coli, purified
T2 sequence (looked up) 1: T1 sequence (looked up) 1 with R176A, N203G
T2 sequence (looked up) 2: T1 sequence (looked up) 2

T3: Hop2 (K63A/Y65A/K67A)-Mnd1 (mouse, UniProt O35047 1-217; Q8K396 1-205, K63A | Y65A | K67A)
T3 construct: Hop2, mouse; Mnd1, mouse; also called Hop2-KYK-Mnd1; source: E. coli, purified
T3 sequence (looked up) 1: T1 sequence (looked up) 1 with K63A, Y65A, K67A, N203G
T3 sequence (looked up) 2: T1 sequence (looked up) 2

T4: Hop2-Mnd1 (R64A/Y70A/Y71A) (mouse, UniProt O35047 1-217; Q8K396 1-205, R64A | Y70A | Y71A)
T4 construct: Hop2, mouse; Mnd1, mouse; also called Hop2-Mnd1-RYY; source: E. coli, purified
T4 sequence (looked up) 1: T1 sequence (looked up) 1 with N203G
T4 sequence (looked up) 2: T1 sequence (looked up) 2 with R64A, Y70A, Y71A

T5: Hop2-Mnd1 (KYK+RYY) (mouse, UniProt O35047 1-217; Q8K396 1-205, K63A | Y65A | K67A | R64A | Y70A | Y71A)
T5 construct: Hop2, mouse; Mnd1, mouse; also called Hop2-KYK-Mnd1-RYY; Hop2-KYK/Mnd1-RYY; source: E. coli, purified
T5 sequence (looked up) 1: T1 sequence (looked up) 1 with K63A, Y65A, K67A, N203G
T5 sequence (looked up) 2: T1 sequence (looked up) 2 with R64A, Y70A, Y71A

B1: human DMC1 (natural protein, UniProt Q14565 1-340, looked up)
chain: MKEDQVVAEEPGFQDEEESLFQDIDLLQKHGINVADIKKLKSVGICTIKGIQMTTRRALCNVKGLSEAKVDKIKEAANKLIEPGFLTAFEYSEKRKMVFHITTGSQEFDKLLGGGIESMAITEAFGEFRTGKTQLSHTLCVTAQLPGAGGYPGGKIIFIDTENTFRPDRLRDIADRFNVDHDAVLDNVLYARAYTSEHQMELLDYVAAKFHEEAGIFKLLIIDSIMALFRVDFSGRGELAERQQKLAQMLSRLQKISEEYNVAVFVTNQMTADPGATMTFQADPKKPIGGHILAHASTTRISLRKGRGELRIAKIYDSPEMPENEATFAITAGGIGDAKE
notes: DMC1, human; source: insect cells infected with a recombinant DMC1 baculovirus, purified
B2: Hop2-Mnd1^100-205 (complex, mouse)
chain 1: T1 sequence (looked up) 1 with N203G
chain 2: HADLQKSIEKARVGRQETEERAMLAKELSSFRDQRQQLKAEVEKYRECDPQVVEEIREANKVAKEAANRWTDNIFAIKSWAKRKFGFEESKIDKNFGIPEDFDYID
notes: Hop2, mouse; Mnd1, mouse, residues 100-205; source: E. coli, purified
B3: (His)6-tagged Mnd1 (natural protein, mouse, UniProt Q8K396 1-205, looked up)
chain: T1 sequence (looked up) 2
notes: Mnd1, mouse, without Hop2; also called purified Mnd1 alone; source: purified
B4: Hop2^126-217-Mnd1 (complex, mouse)
chain 1: MQKEIQELKKECAQYTERLKNIKAATNHVTPEEKEKVYRDRQKYCKEWRKRKRMTTELCDAILEGYPKSKKQFFEEVGIETDEDHNVLLPDP
chain 2: T1 sequence (looked up) 2
notes: Hop2, mouse, residues 126-217; Mnd1, mouse; source: E. coli, purified
B5: human RAD51 (natural protein, UniProt Q06609 1-339, looked up)
chain: MAMQMQLEANADTSVEEESFGPQPISRLEQCGINANDVKKLEEAGFHTVEAVAYAPKKELINIKGISEAKADKILAEAAKLVPMGFTTATEFHQRRSEIIQITTGSKELDKLLQGGIETGSITEMFGEFRTGKTQICHTLAVTCQLPIDRGGGEGKAMYIDTEGTFRPERLLAVAERYGLSGSDVLDNVAYARAFNTDHQTQLLYQASAMMVESRYALLIVDSATALYRTDYSGRGELSARQMHLARFLRMLLRLADEFGVAVVITNQVVAQVDGAAMFAADPKKPIGGNIIAHASTTRLYLRKGRGETRICKIYDSPCLPEAEAMFAINADGVGDAKD
notes: RAD51, human; source: E. coli, purified

Common to all, as to details: both partners purified
Experiment [1] deals with T1, Hop2 (G203N)-Mnd1, MBP-tagged. The experiment is described as follows: pull-down; amylose resin captures MBP-tagged Hop2-Mnd1 or mutant incubated with RAD51 or DMC1; buffer A without imidazole; 4 C; SDS-PAGE, Coomassie.
The target of experiment [2] is B5. Kind of experiment: pull-down; affinity pulldown of RAD51 with truncation mutants of Hop2-Mnd1 (Supplementary Figure S3b, c); resin and tag not told.
Experiment [3] addresses B5. The experiment is described as follows: pull-down; Ni2+-NTA resin captures (His)6-Hop2-Mnd1 or (His)6-Mnd1 (5 uM) incubated with RAD51 (8 uM); buffer A (25 mM Tris-HCl pH 7.5, 10% glycerol, 0.5 mM EDTA, 0.01% Igepal, 10 mM imidazole), 50-250 mM KCl, with or without 2 mM MgCl2 and 2 mM ATP (or other nucleotides); 4 C; SDS-PAGE, Coomassie.
The target of a further experiment is T2, Hop2 (R176A)-Mnd1. The experiment is described as follows: pull-down; affinity pulldown of RAD51 with the DNA binding mutants of Hop2-Mnd1; only summarized in Table 1; resin and tag not told.
The target of experiment [4] is T3, Hop2 (K63A/Y65A/K67A)-Mnd1. The experiment is described as above.
For experiment [5], the target named is T4, Hop2-Mnd1 (R64A/Y70A/Y71A). The experiment is described as above.
The next experiment addresses T5, Hop2-Mnd1 (KYK+RYY). Described as above.

As for B1, the binding result in experiment [1] was “binds”. With B2, the binding result with human RAD51 [2] was “binds”.

B3: in the experiment with human RAD51 [3], the binding result is recorded as “binds”. For B4, in the experiment with human RAD51 [2], the binding result is “binds”. With B5, the binding result (in the experiment with Hop2 (R176A)-Mnd1; in experiment [4]; in experiment [5]; with Hop2-Mnd1 (KYK+RYY); in experiment [1]) was “binds” throughout.
